Data: paper PMC3867001

Molecular target: HIV-1 M group N-terminal capsid domain (HIV-1 M group) (UniProt P12493)
Experiment: ITC

Row | Substance | Kd [µM] | dH [kcal/mol]
1 | Cyclophilin A (unacetylated, recombinant) (from UniProt P62937 1-165) (enzyme) | 7.5 | -7.4
2 | Lys125-acetylated Cyclophilin A (recombinant) (from UniProt P62937 1-165) (enzyme) | 6.1 | -4.6
